# B1: 40 bp blunt DNA with two internal nicks (dsDNA)
# DNA 1: GCATGCTCTACTGCTTCGATATCG
# DNA 2: AAGCAGTAGAGCATGC
# DNA 3: GCATGCTCTACTGCTTCGATATCG
# DNA 4: AAGCAGTAGAGCATGC
# Key:
# [1] = molecular target: DNA-PKcs (human? (HeLa cells), UniProt P78527 1-4128); experiment: cryo-EM structure
# [2] = molecular target: DNA-PKcs;Ku70;Ku80 (human? (HeLa cells);human?;human?, UniProt P78527;P12956;P13010 1-4128;1-609;1-732, ||); experiment: cryo-EM structure
# DNA-PKcs, sequence (P78527 whole entry): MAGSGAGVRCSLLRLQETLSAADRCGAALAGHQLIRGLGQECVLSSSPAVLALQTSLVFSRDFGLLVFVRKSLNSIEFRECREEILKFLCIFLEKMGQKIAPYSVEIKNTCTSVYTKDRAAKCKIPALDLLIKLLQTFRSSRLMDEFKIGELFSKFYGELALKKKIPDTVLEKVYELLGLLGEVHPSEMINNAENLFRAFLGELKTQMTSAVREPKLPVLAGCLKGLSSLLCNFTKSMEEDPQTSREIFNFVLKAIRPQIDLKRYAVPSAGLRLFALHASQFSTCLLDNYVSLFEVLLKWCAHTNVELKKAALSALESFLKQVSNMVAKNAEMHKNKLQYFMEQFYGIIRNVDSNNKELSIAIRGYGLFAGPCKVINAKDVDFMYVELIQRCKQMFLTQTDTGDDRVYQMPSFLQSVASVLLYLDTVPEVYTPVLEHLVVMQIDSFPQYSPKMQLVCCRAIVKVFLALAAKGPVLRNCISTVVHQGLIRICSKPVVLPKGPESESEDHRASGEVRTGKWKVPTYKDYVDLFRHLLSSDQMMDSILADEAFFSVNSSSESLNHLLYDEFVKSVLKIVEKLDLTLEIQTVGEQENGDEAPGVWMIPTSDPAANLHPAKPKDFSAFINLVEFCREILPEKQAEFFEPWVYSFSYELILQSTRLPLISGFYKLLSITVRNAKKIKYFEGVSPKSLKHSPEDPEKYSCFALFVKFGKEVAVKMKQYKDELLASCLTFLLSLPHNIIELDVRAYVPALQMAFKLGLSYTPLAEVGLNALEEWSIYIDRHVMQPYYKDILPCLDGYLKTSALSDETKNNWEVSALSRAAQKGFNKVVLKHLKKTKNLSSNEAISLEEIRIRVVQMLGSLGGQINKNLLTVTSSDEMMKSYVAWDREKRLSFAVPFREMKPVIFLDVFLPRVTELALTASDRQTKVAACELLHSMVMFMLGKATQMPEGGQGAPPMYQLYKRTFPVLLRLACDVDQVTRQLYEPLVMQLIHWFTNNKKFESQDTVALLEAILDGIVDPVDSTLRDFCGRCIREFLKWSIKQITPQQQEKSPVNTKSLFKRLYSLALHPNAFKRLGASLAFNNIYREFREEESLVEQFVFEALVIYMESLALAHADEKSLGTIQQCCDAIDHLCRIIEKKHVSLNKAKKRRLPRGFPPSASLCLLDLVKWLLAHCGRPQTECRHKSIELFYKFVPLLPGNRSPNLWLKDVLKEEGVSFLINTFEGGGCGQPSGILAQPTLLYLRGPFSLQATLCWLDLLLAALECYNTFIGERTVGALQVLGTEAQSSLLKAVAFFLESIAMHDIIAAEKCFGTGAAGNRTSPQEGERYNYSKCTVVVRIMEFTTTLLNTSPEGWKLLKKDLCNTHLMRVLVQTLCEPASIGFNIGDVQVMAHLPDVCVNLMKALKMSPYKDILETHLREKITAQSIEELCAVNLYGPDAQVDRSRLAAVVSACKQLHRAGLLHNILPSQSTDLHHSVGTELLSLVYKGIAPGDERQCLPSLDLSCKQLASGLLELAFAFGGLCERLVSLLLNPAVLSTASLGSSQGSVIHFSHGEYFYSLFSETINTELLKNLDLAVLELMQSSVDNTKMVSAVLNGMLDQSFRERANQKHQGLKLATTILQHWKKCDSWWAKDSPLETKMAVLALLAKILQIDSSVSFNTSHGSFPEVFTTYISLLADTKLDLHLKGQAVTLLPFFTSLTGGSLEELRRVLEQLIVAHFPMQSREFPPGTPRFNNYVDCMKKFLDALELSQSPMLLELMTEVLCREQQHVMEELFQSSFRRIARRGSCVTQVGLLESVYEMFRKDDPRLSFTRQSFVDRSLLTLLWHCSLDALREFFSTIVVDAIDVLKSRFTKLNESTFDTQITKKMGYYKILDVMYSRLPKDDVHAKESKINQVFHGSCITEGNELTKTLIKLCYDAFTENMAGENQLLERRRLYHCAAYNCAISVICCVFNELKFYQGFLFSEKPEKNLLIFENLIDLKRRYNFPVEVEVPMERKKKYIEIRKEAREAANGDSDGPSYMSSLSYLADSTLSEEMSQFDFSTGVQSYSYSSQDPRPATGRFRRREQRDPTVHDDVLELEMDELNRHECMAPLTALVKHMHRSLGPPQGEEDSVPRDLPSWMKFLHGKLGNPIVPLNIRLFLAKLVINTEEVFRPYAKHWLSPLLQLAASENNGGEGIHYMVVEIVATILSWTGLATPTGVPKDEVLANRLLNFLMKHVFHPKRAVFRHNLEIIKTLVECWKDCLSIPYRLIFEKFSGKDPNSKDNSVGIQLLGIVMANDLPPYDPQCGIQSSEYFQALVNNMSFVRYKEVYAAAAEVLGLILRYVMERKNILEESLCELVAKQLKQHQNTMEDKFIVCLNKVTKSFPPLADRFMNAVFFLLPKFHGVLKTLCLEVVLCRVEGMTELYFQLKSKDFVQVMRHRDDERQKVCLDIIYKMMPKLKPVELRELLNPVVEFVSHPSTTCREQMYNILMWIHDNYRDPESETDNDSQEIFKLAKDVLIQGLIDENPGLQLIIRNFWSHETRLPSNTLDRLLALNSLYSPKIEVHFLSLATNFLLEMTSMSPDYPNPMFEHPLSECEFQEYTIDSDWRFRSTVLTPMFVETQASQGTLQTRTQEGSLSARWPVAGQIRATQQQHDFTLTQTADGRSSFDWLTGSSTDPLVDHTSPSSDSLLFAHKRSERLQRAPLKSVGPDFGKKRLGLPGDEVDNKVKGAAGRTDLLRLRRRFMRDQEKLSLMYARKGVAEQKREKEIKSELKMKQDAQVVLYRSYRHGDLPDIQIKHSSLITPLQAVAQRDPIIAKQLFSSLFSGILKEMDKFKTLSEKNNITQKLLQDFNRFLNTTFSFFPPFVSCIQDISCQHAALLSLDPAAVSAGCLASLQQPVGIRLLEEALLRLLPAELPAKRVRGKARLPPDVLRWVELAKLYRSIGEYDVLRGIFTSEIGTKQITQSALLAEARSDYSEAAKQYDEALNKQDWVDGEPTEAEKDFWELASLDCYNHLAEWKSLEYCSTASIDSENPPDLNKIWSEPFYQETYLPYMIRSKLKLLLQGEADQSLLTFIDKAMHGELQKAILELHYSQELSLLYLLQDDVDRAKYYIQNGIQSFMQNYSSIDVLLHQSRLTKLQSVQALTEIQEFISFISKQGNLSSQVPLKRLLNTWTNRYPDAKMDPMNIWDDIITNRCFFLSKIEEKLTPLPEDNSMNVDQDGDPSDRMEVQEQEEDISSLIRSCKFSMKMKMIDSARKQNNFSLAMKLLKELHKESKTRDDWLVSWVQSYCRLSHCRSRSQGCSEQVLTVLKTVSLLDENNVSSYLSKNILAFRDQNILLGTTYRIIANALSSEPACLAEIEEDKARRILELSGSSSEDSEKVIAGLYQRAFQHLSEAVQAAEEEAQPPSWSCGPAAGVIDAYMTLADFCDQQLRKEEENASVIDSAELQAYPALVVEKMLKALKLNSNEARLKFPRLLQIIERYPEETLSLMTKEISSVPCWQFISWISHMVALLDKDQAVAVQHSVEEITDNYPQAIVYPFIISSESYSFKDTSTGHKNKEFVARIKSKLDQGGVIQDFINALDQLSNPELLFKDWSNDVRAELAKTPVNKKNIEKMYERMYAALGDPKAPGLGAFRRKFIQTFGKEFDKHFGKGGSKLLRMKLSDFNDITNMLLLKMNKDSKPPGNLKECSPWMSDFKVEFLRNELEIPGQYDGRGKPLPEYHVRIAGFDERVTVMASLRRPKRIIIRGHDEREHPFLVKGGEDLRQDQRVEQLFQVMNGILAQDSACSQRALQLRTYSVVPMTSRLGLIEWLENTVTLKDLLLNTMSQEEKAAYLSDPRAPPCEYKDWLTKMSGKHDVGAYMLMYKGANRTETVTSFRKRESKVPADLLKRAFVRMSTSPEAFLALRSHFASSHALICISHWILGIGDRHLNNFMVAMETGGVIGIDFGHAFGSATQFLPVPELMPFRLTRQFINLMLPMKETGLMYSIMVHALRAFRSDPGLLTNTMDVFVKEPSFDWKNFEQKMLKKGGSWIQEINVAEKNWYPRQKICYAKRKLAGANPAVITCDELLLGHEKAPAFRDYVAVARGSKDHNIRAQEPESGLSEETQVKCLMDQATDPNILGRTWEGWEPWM
binder,measurement,setting,value
B1,binding result,[1],binds
same,binding result,[2],binds

# From paper doi:10.1101/2020.10.19.346148
